Reference: the supplement of paper PMC9170038

System: MS2 coat protein
Assay: apparent KD of MS2 coat protein; higher = weaker reporter binding
Conditions: Eterna round: R107
Outline: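 With or without constant ligand, designed RNA switches in 100 mM Tris-HCl pH 7.5, 80 mM KCl and 4 mM MgCl2 were titrated with SNAP-549-labelled MS2 coat protein. Concentrations went up in twofold steps from 0.7 or 1.5 nM to 3 µM. The switches had been transcribed on-chip from Illumina sequencing clusters, and apparent KD is the per-design median of normalised cluster binding-curve fits.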

[1] = input ligand: theophylline 20 uM
[2] = input ligand: tryptophan 2.4 mM
[3] = input ligand: theophylline 2 mM

Sequence | apparent KD of MS2 coat protein (input ligand: arginine 13.2 mM) [nM] | apparent KD of MS2 coat protein [1] [nM] | apparent KD of MS2 coat protein [2] [nM] | apparent KD of MS2 coat protein (input ligand: none) [nM] | apparent KD of MS2 coat protein [3] [nM]
AUGUGCAAUACGGAUACCAGCCCGUGUAGAUACAUGAGGAUCACCCAUGUCAAUGUAAAUGGCCCUUGGCAGCCGUUUGGGAGGC [theeternabot_sameState_MS2_Theo_B_35] | 13.4 | 19.9 | 19.4 | – | –
AUUCAUAACUGAAGGAGCGUGAUAUAAAUUUUUACAUGAGGAUCACCCAUGUUUCAUAGAUCACAGGUAGGUCGCAGAUUCUCAU [JR_SSArginiB_Sub011] | 36.8 | 42.4 | 39.2 | 45.2 | 42.9
AUUGUCGUGUCGGCCGCCACUGUCAUGGUUUUCGUGGAAAACAUGAGGAUCACCCAUGUAAUUGACAGGACCGGGACAUGGCGGC [Ricegesoer] | 9.35 | 11.1 | – | – | 9.4
AUUUGGCGUAGUGUUGCUCGUGGGAUAAAACGAGGACCGGUACGGCCGCCACUCGAUGAUUAACAUGAGGAUCACCCAUGUAAAU [theeternabot_exclusion_MS2_Trp_A_22] | 17.5 | 30.6 | – | – | 32.2
CAAAAUGCGGCGGCCGCCACUCAGCUCCGUGUGGUUGGUCAUCUUAACAUGAGGAUCACCCAUGUGAGGACCGGGCCAGCGAGUG [theeternabot_exclusion_MS2_Trp_B_38] | 13.3 | 19.6 | – | – | 17
CAAAAUUACGGAAGGAGCGCGGGUAGGCGGGUUGGAUCACAUGAGGAUCACCCAUGUAAAUCGCAGGUAGGUCGCCGUAAACGCG [Eslagele] | 45.6 | 43.9 | 36 | 28.8 | 76.9
CAAGAGUUGUACAUUGUGAGGCGUCGGGAACGAGGACCGGUACGGCCGCCACUCGAAAAUUAACAUGAGGAUCACCCAUGUACAC [theeternabot_exclusion_MS2_Trp_A_35] | 36.1 | 72.7 | – | – | 82.8
CAAUAAGUACCGGUCCUCAGAUCCUCAUGACGAGGACCGGUACGGCCGCCACUCGAAACAUGAGGAUCACCCAUGUAAUAAUAAU [Brourdmod01] | 15.3 | 31.4 | – | – | 24.2
CACAGUGCGAAUUUGAAUUCGCACGAUCCUCGAGGACCGGUACGGCCGCCACUCGCGCGGGUCGUACAUGAGGAUCACCCAUGUC [Quermavebe] | 25 | 233 | – | – | 1190
CACGCACGAUCGGCCGCCACUCAUGUAGCUUACAUGAGGAUCACCCAUGUAUUUUCUUUCUUAUAGAGGACCGGGAUCGUGCGUG [#04 Same State - Tryptophan B] | 21 | 28.2 | – | – | 24.5
CACGGACGAGUGGAUCACCCUUGUAAUAACCGAGGACCGGUACGGCCGCCACUCGAAAACCGUGACCUGUACGAAAAGUGCAGGA | 14.2 | 148 | 195 | 26.5 | 466
CACUUCAUGUGAGAUACCAGUGCCUUACAUGAGGAUCACCCAUGUCGUAAUGUGGAGAAGCACCCUUGGCAGCUCGCUUCGAGUG [Theo B SS t6] | 57.2 | 91.6 | 87.6 | – | –
CAGCACAUGAGGAUCACCCAUGUGAGGGAUACCAGCUCAGGCGUGGGCCCUUGGCAGCUCUGUGGCUGACGAAAGUCAGCCUCUG [#18 SameState-TheophyllineA] | 13.4 | 17.7 | 13.4 | 14.6 | 15.4
CAGGUUAGGGCGGCCGCCACUGUGGCUACGGUACAUGAGGAUCACCCAUGUUUGUGGUUGAUCUACAGGACCGGGCCCUGACACG [Matidier] | 48.9 | 145 | 272 | 236 | 665
CAUGUUAGGGCGGCCGCCACUGUGGCUACGGUACAUGAGGAUCACCCAUGUUUGUGGUUGAUCUACAGGACCGGGCCCUGACACG [Erarusge] | 127 | 578 | 209 | 187 | 679
CAUUAAGUAACUGAUACCAGUGUACUGACAUGAGGAUCACCCAUGUUGGGUUUUGUUGUACACCCUUGGCAGCAGAAUCUUAAUG [AstrosExyTheB#3] | 44.7 | 70.2 | 62.2 | – | –
